Results on 1 substance are retold here after patent publication US20040086519A1.

The target in this assay is P-selectin (pig). Briefly: cell-based or functional assay.

For the substance “soluble P-selectin glycoprotein ligand-1 (PSGL-1) chimera (rPSGL-Ig) (from UniProt Q14242 42-305) (Fc fusion)”, the decrease in adhesion of 51Cr-platelets to deeply injured arterial segments 1 week following repeat angioplasty (pigs, in vivo) came out at 85%; the decrease in adhesion of 111In-neutrophils to deeply injured arterial segments 1 week following repeat angioplasty (pigs, in vivo) stood at 75%; the decrease in neutrophil adhesion at stented coronary sites 4 weeks after stenting (pigs, in vivo) was found to be 49%; the decrease in platelet adhesion at stented coronary sites 4 weeks after stenting (pigs, in vivo) stood at 39%.
